# Source: publication PMC6021111, “Murine leukemia virus p12 tethers the capsid-containing pre-integration complex to chromatin by binding directly to host nucleosomes in mitosis” (PLoS Pathogens, 2018)
# B1: GST-p12_WT: N-terminally GST-tagged Mo-MLV p12 (protein)
# chain: PALTPSLGAKPKPQVLSDSGGPLIDLLTEDPPPYRDPRPPPSDRDGNGGEATPAGEAPDPSPMASRLRGRREPPVADSTTSQAF
# modifications: left off: GST, N-terminal, kept
# notes: N-terminally GST-tagged Mo-MLV p12
# Legend:
# GST-p12_WT = experiment: SILAC-MS of proteins enriched with GST-p12_WT relative to GST; format: binding, Mo-MLV; conditions: log2(H/L) >2.58 SDs from mean
# Excerpt: To test whether GST-p12 was acting like the p12 region of Gag, we used a global proteomic approach based on stable isotope labelling by amino acids in cell culture (SILAC)-mass spectrometry (MS) to look for host proteins that interact with GST-p12 [35, 36]. A schematic diagram of the workflow is illustrated in Fig 4A. Briefly, GST, GST-p12_mut14 and GST-p12_WT were transiently-expressed in 293T cells cultured in light (R0/K0), medium (R6/K4) and heavy (R10/K8) SILAC media, respectively. Next, lysates of nocodazole treated transfected cells were prepared, normalised and used for parallel pull-down assays with glutathione-sepharose beads. The eluates from the beads were then pooled in a 1:1:1 ratio and subjected to LC-MS/MS analysis. The experiment was performed using biological replicates to test reproducibility of the mass-spec hits. The pull-down assays for this experiment were performed using mitotic cell lysates to facilitate identification of any potential chromatin interactions that were previously missed.
# After removal of obvious contaminants (e.g. keratin) and non-quantified hits, 948 and 879 proteins were identified in replicates 1 and 2 (R1 and R2) of the experiment respectively (the false discovery rate (FDR) was set at 5%). To select proteins enriched in the heavy-labelled (H) GST-p12_WT sample relative to the light-labelled (L) GST sample, we compared the log2(H/L) silac ratios of the mass-spectrometry hits. When plotted as a frequency distribution, the log2(H/L) ratios of each replicate fitted well to a normal distribution curve (R^2 ≥ 0.98), allowing the mean and standard deviation to be accurately estimated (Fig 4B). In this experiment, contaminants/non-specifically bound cellular proteins were assumed to cluster around the mean of the distribution. […] Twenty one such proteins were identified in R1 and 22 identified in R2 (Fig 4B Venn diagram). […] These proteins were then ranked based on normalised abundance in the group. In mass-spectrometry analysis, larger proteins are in general assigned higher scores. Therefore, to control for protein size, we divided the number of peptide spectral matches identified for each protein with its length and then normalised the values across the group (Fig 4C and 4D). When ranked this way, the clathrin heavy chain (CLTC), clathrin interactor 1 (CLINT1) and NEDD4-like E3 ubiquitin ligase (WWP2) were identified as the top three hits. […] The function of clathrin in MLV infection is unclear. […] Thus, clathrin binding may be relevant to the early stages of MLV replication and should be investigated further.
# (§1) For SILAC-MS experiments, 293T cells were grown is media containing light (R0K0, ^12C-Arginine and ^12C-Lysine), medium (R6K4, ^13C-Arginine and Lysine-4,4,5,5-d4) or heavy (R10K8, ^13C+^15N-Arginine and ^13C+^15N-Lysine) versions of L-Arginine and L-Lysine amino acids (Pierce) for a minimum of 6 doublings before transient expression of GST-p12 proteins. After performing the glutathione-sepharose pull-down assays equivalent volumes of the beads eluates were pooled and submitted to the Bristol University Proteomics Facility for RP nano-LC-MS/MS analysis. This analysis was performed on an LTQ-Orbitrap Velos mass spectrometer in line with a Dionex Ultimate 3000 nanoHPLC system as described in [53].
# Supplementary file ppat.1007117.s005.xlsx: S1 Table Results from the first SILAC-MS analysis. GST, Mo-MLV GST-p12_mut14 or GST-p12_WT were transiently-expressed in 293T cells cultured in light (R0/K0), medium (R6/K4) and heavy (R10/K8) SILAC media, respectively. Mitotic cell lysates were subsequently used for glutathione-sepharose bead pull-down assays. Bead eluates were pooled in a 1:1:1 ratio and then analysed by LC-MS/MS. […] (XLSX) Click here for additional data file.
# [1] = test system: cellular proteins of mitotic 293T cells; experiment: SILAC-MS of GST-p12_WT relative to GST-p12_mut14; format: binding; conditions: log2(H/M) >2.58 SDs from mean in both replicates
# Experimental: as §1
# Supplementary file ppat.1007117.s002.tif: S2 Fig SILAC results showing no significant difference in protein complexes of Mo-MLV GST-p12_mut14 compared to GST-p12_WT. (Links to Fig 4). GST, Mo-MLV GST-p12_mut14 or GST-p12_WT were transiently-expressed in 293T cells cultured in light (L), medium (M) or heavy (H) SILAC media, respectively. GST-protein complexes were precipitated from mitotic cell lysates and analysed by LC-MS/MS. (A) To identify proteins enriched in the GST-p12_WT (H) sample relative to the GST-p12_mut14 (M) sample, log2(H/M) silac ratios of each set of MS hits (FDR <5%) from replicates (R1 and R2) were plotted as a frequency distribution. […]
molecule,measurement,setting,value
B1,number of proteins significantly enriched vs GST in both replicates,GST-p12_WT; R1 and R2,seven
same,number of proteins significantly enriched vs GST,GST-p12_WT; replicate 1,Twenty one
same,number of proteins significantly enriched vs GST,GST-p12_WT; replicate 2,22 proteins
same,proteins significantly enriched vs GST-p12_mut14,[1],no proteins that passed the criteria for significant enrichment
